In publication PMC5384650:

Substrate: NC[C@H](N)C(=O)O
Assay: coupled NADH oxidation assay
Assay type: biochemical, Salmonella enterica
Settings: ATP, Mg2+ used in place of beta-alanine

B1: pantothenate synthetase (PanC) (Salmonella enterica subsp. enterica serovar Typhimurium str. LT2) (protein)
chain: MLIIETLPLLRQHIRRLRQEGKRVALVPTMGNLHDGHMKLVDEAKARADVVIVSIFVNPMQFDRPDDLVRYPRTLQEDCEKLNKRKVDYVFAPAVEEIYPHGLEGQTYVDVPGLSTMLEGASRPGHFRGVSTIVSKLFNLIQPDIACFGEKDFQQLALIRKMVADMSYDIEIVGVPIIRAKDGLALSSRNAYLTAEQRKIAPGLYNVMNSIAEKLIAGNRELQEIIAIAEQELNEKGFRADDIQIRDADTLLELTETSKRAVILAAAWLGQARLIDNQSVTLAQ
  Km: 8.1 mM
